Experimental data from PMC4537050, “A long pentraxin-3-derived pentapeptide for the therapy of FGF8b-driven steroid hormone-regulated cancers” (Oncotarget, 2015).

Experiments:
FGF2 = FGF2 (UniProt P09038); assay: SPR; BIAcore X-100; FGF8b (20 μg/ml in 10 mM sodium acetate, pH 6.0) or other FGFs (10 mM sodium acetate at optimal pH) immobilised on a CM5 sensor chip by EDC/NHS; peptide injected (ARPCA 8 μM to 2000 μM), 4 min at 30 μl/min, 10 min dissociation, in HBS; equilibrium values fitted with the Langmuir equation for monovalent binding
FGF1 = FGF1 (UniProt P05230); assay: as above
[1] = biological target: Human recombinant FGF8b (fibroblast growth factor-8b) (human); assay: as above
[2] = biological target: Human recombinant FGF8b (fibroblast growth factor-8b) (human)

In the case of Ac-ARPCA-NH2 [Ac-ARPCA-NH2, acetylated pentapeptide corresponding to PTX3(100-104)], the Kd (FGF2) is reported as 1700 µM, the Kd (FGF1) is reported as 227 µM and the Kd [1] is reported as 278 µM. For the same binder, the inhibition of HUVEC proliferation in response to 30 ng/ml FGF8b (viable cell counts at 48 h) [2] was 30 µM.
